Source: the PETadex activity labels (doi:10.1021/acscatal.9b00568)

B1: unnamed (protein)
chain: MNFPRASRLMQAAVLGGLMAVSAAATAQTNPYARGPNPTAASLEASAGPFTVRSFTVSRPSGYGAGTVYYPTNAGGTVGAIAIVPGYTARQSSIKWWGPRLASHGFVVITIDTNSTLDQPSSRSSQQMAALRQVASLNGTSSSPIYGKVDTARMGVMGWSMGGGGSLISAANNPSLKAAAAQAPWDSSTNFSSVTVPTLIFACENDSIAPVNSSALPIYDSMSRNAKQFLEINGGSHSCANSGNSNQALIGKKGVAWMKRFMDNDTRYSTFACENPNSTRVSDFRTANCS
B2: unnamed (protein)
chain: MNFPRASRLMQAAVLGGLMAVSAAATAQTNPYARGPNPTAASLEASAGPFTVRSFTVSRPSGYGAGTVYYPTNAGGTVGAIAIVPGYTARQSSIKWWGPRLASHGFVVITIDTNSTLDQPDSRSSQQMAALRQVASLNGTSSSPIYGKVDTARMGVMGWSMGGGGSLISAANNPSLKAAAPQAPWHSSTNFSSVTVPTLIFACENDSIAPVNSSALPIYDSMSRNAKQFLEINGGSHSCANSGNSNQALIGKKGVAWMKRFMDNDTRYSTFACENPNSTAVSDFRTANCS
B3: unnamed (protein)
chain: MNFPRASRLMQAAVLGGLMAVSAAATAQTNPYARGPNPTAASLEASAGPFTVRSFTVSRPSGYGAGTVYYPTNAGGTVGAIAIVPGYTARQSSIKWWGPRLASHGFVVITIDTNSTLDQPSSRSSQQMAALRQVASLNGTSSSPIYGKVDTARMGVMGWSMGGGGSLISAANNPSLKAAAPQAPWVSSTNFSSVTVPTLIFACENDSIAPVNSSALPIYDSMSRNAKQFLEINGGSHSCANSGNSNQALIGKKGVAWMKRFMDNDTRYSTFACENPNSTRVSDFRTANCS
B4: unnamed (protein)
chain: MNFPRASRLMQAAVLGGLMAVSAAATAQTNPYARGPNPTAASLEASAGPFTVRSFTVSRPSGYGAGTVYYPTNAGGTVGAIAIVPGYTARQSSIKWWGPRLASHGFVVITIDTNSTLDQPESRSSQQMAALRQVASLNGTSSSPIYGKVDTARMGVMGWSMGGGGSLISAANNPSLKAAAAQAPWHSSTNFSSVTVPTLIFACENDSIAPVNSSALPIYDSMSRNAKQFLEINGGSHSCANSGNSNQALIGKKGVAWMKRFMDNDTRYSTFACENPNSTRVSDFRTANCS
B5: unnamed (protein)
chain: MNFPRASRLMQAAVLGGLMAVSAAATAQTNPYARGPNPTAASLEASAGPFTVRSFTVSRPSGYGAGTVYYPTNAGGTVGAIAIVPGYTARQSSIKWWGPRLASHGFVVITIDTNSTLDQPSSRSSQQMAALRQVASLNGTSSSPIYGKVDTARMGVMGWSMGGGGSLISAANNPSLKAAAPQAPWHSSTNFSSVTVPTLIFACENDSIAPVNSSALPIYDSMSRNAKQFLEINGGSHSCANSGNSNQALIGKKGVAWMKRFMDNDTRYSTFACENPNSTRVSDFRTANCS
B6: unnamed (protein)
chain: MNFPRASRLMQAAVLGGLMAVSAAATAQTNPYARGPNPTAASLEASAGPFTVRSFTVSRPSGYGAGTVYYPTNAGGTVGAIAIVPGYTARQSSIKWWGPRLASHGFVVITIDTNSTLDQPSSRSSQQMAALRQVASLNGTSSSPIYGKVDTARMGVMGWSMGGGGSLISAANNPSLKAAAPQAPWISSTNFSSVTVPTLIFACENDSIAPVNSSALPIYDSMSRNAKQFLEINGGSHSCANSGNSNQALIGKKGVAWMKRFMDNDTRYSTFACENPNSTRVSDFRTANCS
B7: unnamed (protein)
chain: MNFPRASRLMQAAVLGGLMAVSAAATAQTNPYARGPNPTAASLEASAGPFTVRSFTVSRPSGYGAGTVYYPTNAGGTVGAIAIVPGYTARQSSIKWWGPRLASHGFVVITIDTNSTLDQPSSRSSQQMAALRQVASLNGTSSSPIYGKVDTARMGVMGWSMGGGGSLISAANNPSLKAAAGQAPWDSSTNFSSVTVPTLIFACENDSIAPVNSSALPIYDSMSRNAKQFLEINGGSHSCANSGNSNQALIGKKGVAWMKRFMDNDTRYSTFACENPNSTRVSDFRTANCS
B8: unnamed (protein)
chain: MNFPRASRLMQAAVLGGLMAVSAAATAQTNPYARGPNPTAASLEASAGPFTVRSFTVSRPSGYGAGTVYYPTNAGGTVGAIAIVPGYTARQSSIKWWGPRLASHGFVVITIDTNSTLDQPSSRSSQQMAALRQVASLNGTSSSPIYGKVDTARMGVMGWSMGGGGSLISAANNPSLKAAASQAPWDSSTNFSSVTVPTLIFACENDSIAPVNSSALPIYDSMSRNAKQFLEINGGSHSCANSGNSNQALIGKKGVAWMKRFMDNDTRYSTFACENPNSTRVSDFRTANCS
B9: unnamed (protein)
chain: MNFPRASRLMQAAVLGGLMAVSAAATAQTNPYARGPNPTAASLEASAGPFTVRSFTVSRPSGYGAGTVYYPTNAGGTVGAIAIVPGYTARQSSIKWWGPRLASHGFVVITIDTNSTLDQPESRSSQQMAALRQVASLNGTSSSPIYGKVDTARMGVMGWSMGGGGSLISAANNPSLKAAAPQAPWDSSTNFSSVTVPTLIFACENDSIAPVNSSALPIYDSMSRNAKQFLEINGGSHSCANSGNSNQALIGKKGVAWMKRFMDNDTRYSTFACENPNSTRVSDFRTANCS
B10: unnamed (protein)
chain: MNFPRASRLMQAAVLGGLMAVSAAATAQTNPYARGPNPTAASLEASAGPFTVRSFTVSRPSGYGAGTVYYPTNAGGTVGAIAIVPGYTARQSSIKWWGPRLASHGFVVITIDTNSTLDQPDSRSSQQMAALRQVASLNGTSSSPIYGKVDTARMGVMGWSMGGGGSLISAANNPSLKAAAPQAPWDSSTNFSSVTVPTLIFACENDSIAPVNSSALPIYDSMSRNAKQFLEINGGSHSCANSGNSNQALIGKKGVAWMKRFMDNDTRYSTFACENPNSTRVSDFRTANCS
B11: unnamed (protein)
chain: MNFPRASRLMQAAVLGGLMAVSAAATAQTNPYARGPNPTAASLEASAGPFTVRSFTVSRPSGYGAGTVYYPTNAGGTVGAIAIVPGYTARQSSIKWWGPRLASHGFVVITIDTNSTLDQPDSRSSQQMAALRQVASLNGTSSSPIYGKVDTARMGVMGWSMGGGGSLISAANNPSLKAAAAQAPWHSSTNFSSVTVPTLIFACENDSIAPVNSSALPIYDSMSRNAKQFLEINGGSHSCANSGNSNQALIGKKGVAWMKRFMDNDTRYSTFACENPNSTRVSDFRTANCS
B12: unnamed (protein)
chain: MNFPRASRLMQAAVLGGLMAVSAAATAQTNPYARGPNPTAASLEASAGPFTVRSFTVSRPSGYGAGTVYYPTNAGGTVGAIAIVPGYTARQSSIKWWGPRLASHGFVVITIDTNSTLDQPESRSSQQMAALRQVASLNGTSSSPIYGKVDTARMGVMGWSMGGGGSLISAANNPSLKAAAPQAPWHSSTNFSSVTVPTLIFACENDSIAPVNSSALPIYDSMSRNAKQFLEINGGSHSCANSGNSNQALIGKKGVAWMKRFMDNDTRYSTFACENPNSTRVSDFRTANCS

The proteins below were run on PET (assay: Proxy for plastic degradation [HPLC-UV]). Conditions: pH 9; 30 °C; 24 h.
B1 was tested, and the “Proxy for plastic degradation” value was 4.2 µM. For B2, the “Proxy for plastic degradation” value was 22.2 µM. B3 was tested, and the “Proxy for plastic degradation” value was 2.4 µM. B4 was tested, and the “Proxy for plastic degradation” value was 10.6 µM. With B5 the “Proxy for plastic degradation” value was 10.4 µM. With B6 the “Proxy for plastic degradation” value was 1.3 µM. B7 was tested, and the “Proxy for plastic degradation” value was 2.3 µM. B8 was tested, and the “Proxy for plastic degradation” value was 3.5 µM. In the case of B9, the “Proxy for plastic degradation” value is reported as 10.8 µM. B10 was tested, and the “Proxy for plastic degradation” value was 5.3 µM. B11 was tested, and the “Proxy for plastic degradation” value was 13.4 µM. In the case of B12, the “Proxy for plastic degradation” value is reported as 18.8 µM.

Same assay, conditions: pH 9; 30 °C; 72 h
B1 was tested, and the “Proxy for plastic degradation” value was 7.8 µM. For B2, the “Proxy for plastic degradation” value was 57.2 µM. In the case of B3, the “Proxy for plastic degradation” value is reported as 4 µM. For B4, the “Proxy for plastic degradation” value was 13.7 µM. For B5, the “Proxy for plastic degradation” value was 12.8 µM. For B6, the “Proxy for plastic degradation” value was 2.4 µM. In the case of B7, the “Proxy for plastic degradation” value is reported as 3.3 µM. With B8 the “Proxy for plastic degradation” value was 4.9 µM. B9 was tested, and the “Proxy for plastic degradation” value was 19 µM. B10 was tested, and the “Proxy for plastic degradation” value was 24.3 µM. For B11, the “Proxy for plastic degradation” value was 18.9 µM. In the case of B12, the “Proxy for plastic degradation” value is reported as 30.5 µM.

Same assay, conditions: pH 9; 40 °C; 24 h
In the case of B1, the “Proxy for plastic degradation” value is reported as 7.5 µM. For B2, the “Proxy for plastic degradation” value was 69.8 µM. For B3, the “Proxy for plastic degradation” value was 1.9 µM. In the case of B4, the “Proxy for plastic degradation” value is reported as 13.9 µM. B5 was tested, and the “Proxy for plastic degradation” value was 8.7 µM. B6 was tested, and the “Proxy for plastic degradation” value was 1.2 µM. With B7 the “Proxy for plastic degradation” value was 1.2 µM. With B8 the “Proxy for plastic degradation” value was 1.9 µM. B9 was tested, and the “Proxy for plastic degradation” value was 3.6 µM. In the case of B10, the “Proxy for plastic degradation” value is reported as 2.6 µM. With B11 the “Proxy for plastic degradation” value was 18 µM. In the case of B12, the “Proxy for plastic degradation” value is reported as 38.7 µM.

Same assay, conditions: pH 9; 40 °C; 72 h
For B1, the “Proxy for plastic degradation” value was 7.6 µM. B2 was tested, and the “Proxy for plastic degradation” value was 93.6 µM. With B3 the “Proxy for plastic degradation” value was 7.1 µM. In the case of B4, the “Proxy for plastic degradation” value is reported as 19.8 µM. With B5 the “Proxy for plastic degradation” value was 19.7 µM. With B6 the “Proxy for plastic degradation” value was 6.9 µM. B7 was tested, and the “Proxy for plastic degradation” value was 1.7 µM. With B8 the “Proxy for plastic degradation” value was 2.2 µM. For B9, the “Proxy for plastic degradation” value was 5.2 µM. For B10, the “Proxy for plastic degradation” value was 7.2 µM. B11 was tested, and the “Proxy for plastic degradation” value was 25.3 µM. With B12 the “Proxy for plastic degradation” value was 52.2 µM.
